Laboratory results from paper PMC9675756.

What was measured:
[1] = molecular target: A3G-CTD2 (catalytically active), crystal and NMR construct (human) (UniProt Q9HC16); experiment: competitive inhibition of deamination, real-time 1H NMR; conditions: N at position 6 = 2'-deoxy-zebularine (replaces target C); hydrated to 4-(R)-hydroxy-3,4-dihydro form in the active enzyme; DTT, 0.002% Tween 20, 50 nM protein, RED-tris-NTA dye, 23 C; NMR inhibition: 50 mM NaPO4 pH 6.5, 100 mM NaCl, 0.00
[2] = molecular target: A3G-CTD2* (catalytically inactive), MST construct E259A (human) (UniProt Q9HC16); experiment: MST; conditions: N at position 6 = 2'-deoxy-zebularine (replaces target C); hydrated to 4-(R)-hydroxy-3,4-dihydro form in the active enzyme; MST: 20 mM Bis-Tris pH 6.5, 100 mM NaCl, 1 mM DTT, 0.002% Tween 20, 50 nM protein, RED-tris-NTA dye, 23 C; NMR inhibition: 50 mM NaPO4 pH 6.5, 100 mM NaCl …
A3G-CTD2* (catalytically inactive), MST construct E259A (human), sequence (Q9HC16 191-384 E259A): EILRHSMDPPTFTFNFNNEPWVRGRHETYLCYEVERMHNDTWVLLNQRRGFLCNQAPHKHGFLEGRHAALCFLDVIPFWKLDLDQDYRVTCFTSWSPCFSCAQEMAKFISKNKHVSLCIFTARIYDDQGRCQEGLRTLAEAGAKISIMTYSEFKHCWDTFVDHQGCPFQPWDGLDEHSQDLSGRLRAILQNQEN

[3] = molecular target: A3G-CTD2 (catalytically active soluble variant), MST construct (human) (UniProt Q9HC16); experiment: MST; conditions: 23 C, apparent Kd, active enzyme hydrates dZ, N at position 6 = 2'-deoxy-zebularine (replaces target C), hydrated to 4-(R)-hydroxy-3,4-dihydro form in the active enzyme, MST: 20 mM Bis-Tris pH 6.5, 100 mM NaCl, 1 mM DTT, 0.002% Tween 20, 50 nM protein, RED-tris-NTA dye, NMR inhibition: 50 mM NaPO4 pH 6.5, 100 mM NaCl …

A3G-CTD2 (catalytically active), crystal and NMR construct (human), sequence (Q9HC16 191-384): as the sequence (Q9HC16 191-384 E259A) above, with A69E counted along it

“AATCCNAAA [5'-AATCCdZAAA (dZ-ssDNA inhibitor)]” showed a Ki [1] of 3.07 µM, a Kd [2] of 14.3 µM and a Kd [3] of 0.27 µM.
